For seven substances, binding results are on record in publication PMC8584621.

Series [1] has as its target T1, SCO3932 (GntR-like, HutC subfamily) (Streptomyces coelicolor A3(2) M145) (UniProt Q9X9T6).
T1 sequence: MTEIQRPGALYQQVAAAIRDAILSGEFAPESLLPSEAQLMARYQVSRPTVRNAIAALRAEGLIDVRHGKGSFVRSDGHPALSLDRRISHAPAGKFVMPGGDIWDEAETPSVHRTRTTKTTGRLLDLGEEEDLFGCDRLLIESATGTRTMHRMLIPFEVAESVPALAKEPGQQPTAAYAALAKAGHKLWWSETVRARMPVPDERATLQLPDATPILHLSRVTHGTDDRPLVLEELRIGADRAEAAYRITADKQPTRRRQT
In words: DMS footprinting. Conditions: EMSA: 10 mM Tris-HCl pH 7.5, 50 mM KCl, 1 mM DTT, herring sperm DNA 100 ng, DTT/Tween20, 0.03 pmol probe in 16 uL, 20 min room temperature; footprint: same ….

In series [2] the target is T1, SCO3932 (GntR-like, HutC subfamily) (Streptomyces coelicolor A3(2) M145). In words: DNase I footprinting. The note with it: EMSA: 10 mM Tris-HCl pH 7.5, 50 mM KCl, 1 mM DTT, herring sperm DNA 100 ng, DTT/Tween20, 0.03 pmol probe in 16 uL, 20 min room temperature; footprint: same …. In general terms: In EMSA bound probe runs differently from free probe, usually more slowly.

The test system of series [3] is SCO3932 (GntR-like, HutC subfamily) (Streptomyces coelicolor A3(2) M145). In words: EMSA. Conditions: EMSA: 10 mM Tris-HCl pH 7.5, 50 mM KCl, 1 mM DTT, herring sperm DNA 100 ng, DTT/Tween20, 0.03 pmol probe in 16 uL, 20 min room temperature; footprint: same ….
Series [4] has the same test system. In words: DNase I footprinting. The note with it: protein concentration giving protection, EMSA: 10 mM Tris-HCl pH 7.5, 50 mM KCl, 1 mM DTT, herring sperm DNA 100 ng, DTT/Tween20, 0.03 pmol probe in 16 uL, 20 min room temperature, footprint: same ….

For the substance “AAGGATCCGAATGGACTGCATTTCTGTGGCCTCCCTGGCCAATCCAGGACGTCCAACCTATTCGGACGTCACTTGTCCTTACGAGTGACAAGCTTGGAGCACTGTACGGCGAGAGCGCAACTACTTATGCTGACGAGTGATGTCGCGCGTGCGACGTGCCTACGACACCAGACCGGAGATGCCGAGATGACGGAGATCCAGAATTCTT (double strand) [p3932/3933 footprint probe]”, the results for the binding result in series [1] and in series [2] were “binds” and 100 nM, respectively.

Turning to p3932/3933 EMSA probe, the binding in series [3] was determined as 1.9 nM.

In series [4] (sites K1, K2), p3932/3933 footprint probe returned a binding of 100 nM.

pactII-orf4 EMSA probe showed a binding in series [3] of 9.4 nM.

As to pactII-orf4 footprint probe, the binding in series [4] (sites A1, A2) is 800 nM.

On to pcpkA/D EMSA probe, for which the binding in series [3] came out at 9.4 nM.

The substance pcpkD footprint probe gave a binding in series [4] (site D) of 800 nM.
